Results published in patent US20100056762A1 (published 2010).
One block for each molecule: values may come before it. Bridges are numbered along the chain shown (N, C = ends). Where no end group is shown, it is not given here.

Key:
[1] = target: wild-type epidermal growth factor receptor (wtEGFR) (human) (UniProt P00533); assay: Scatchard, A431 cells
[2] = target: C271A/C283A EGFR mutant (human) (UniProt P00533); assay: FACS, Ba/F3 cells, four clones; reference M2 anti-FLAG
wtEGFR-FLAG (human) = wtEGFR-FLAG (human) (UniProt P00533); assay: FACS, Ba/F3 cells; reference M2 anti-FLAG
[3] = target: T1, EGFR peptide 287-302 (mAb806 peptide epitope) (human, disulfide 1-16); assay: BIAcore, immobilised peptide, antibody 200 nM
T1 peptide: CGADSYEMEEDGVRKC

receptors per cell (receptors per cell) [1]: 2e+06 | ratio of antibody binding mAb 528/M2 (ratio of median fluorescence) [2]: 1.08 | ratio of antibody binding mAb 528/M2 (ratio of median fluorescence) (wtEGFR-FLAG (human)): 1.37
Molecule: 528 antibody

maximal binding (RU) [3]: 800 RU
B1: mAb1133 (antibody, V domains shown)
VH: DVQLQGSGPSLVKPSQSLSLTCTVTGYSITSDYAWNWIRQFPGNKLEWMGYISYSGNTRYNPSLRSRISITRDTSKNQFFLQLNSVTTEDTATYYCATAGRGFPYWGQGTLVTVSA
VL: DILMTQSPSSMSVSLGDTVNITCHSSQDINSNIGWLQQKPGKSFKGLIYHGTNLDDGVPSRFSGSGSGADYSLTISSLESEDFADYYCVQYGQFPWTFGGGTKLEIKR
notes: murine IgG2a; also called 1133 antibody; clone 1133
